# Results reported in patent US20200279616A1.
# T1: HLA-DRB1*01:01 (biochemical MHC-peptide affinity assay) (human)
# T1 chain 1: not shown
# T1 chain 2: not shown
# T2: HLA-DRB1*11:01 (biochemical MHC-peptide affinity assay) (human)
# T2 chain 1: not shown
# T2 chain 2: not shown
# B1: M247 (peptide)
# peptide: PQLRQWWAQGADPLA
# modifications: not checked
# B2: M371 (peptide)
# peptide: ASLRSWPSTWAPWAS
# modifications: not checked
# B3: M248 (peptide)
# peptide: LLRPGQIVAFDSTAQ
# modifications: not checked
# B4: M231 (peptide)
# peptide: PQILPYPAPEEAQEN
# modifications: not checked
# B5: M230 (peptide)
# peptide: PPIDGYPNHPCFEPE
# modifications: not checked
# B6: … (peptide)
# peptide: GLRYKKLHDPKGWIT
# modifications: not checked
# B7: … (peptide)
# peptide: SPHAFKTESGEETDL
# modifications: not checked
# B8: … (peptide)
# peptide: GHPDLQGQPAEEIFES
# modifications: not checked
# B9: … (peptide)
# peptide: GVQRGLVGEIIKR
# modifications: not checked
# B10: … (peptide)
# peptide: DKKNIILEEGKEILVG
# modifications: not checked
# B11: … (peptide)
# peptide: MPSFVPSDGRQAAD
# modifications: not checked
# B12: … (peptide)
# peptide: DRYEMEDGKVIER
# modifications: not checked
# B13: … (peptide)
# peptide: TWFNQPARKIR
# modifications: not checked
# B14: … (peptide)
# peptide: LNELKPISKGGHSS
# modifications: not checked
# B15: … (peptide)
# peptide: IAGEWQVLHREGAIT
# modifications: not checked
# B16: … (peptide)
# peptide: DLEELEVLERKPAAG
# modifications: not checked
# B17: … (peptide)
# peptide: YEDKFRNNLKGKRLD
# modifications: not checked
# B18: … (peptide)
# peptide: EGEYQGIPRAESGG
# modifications: not checked
# B19: … (peptide)
# peptide: GMNIVEAMERFGSRNG
# modifications: not checked
# B20: … (peptide)
# peptide: EPAEFIIDTRDAGYG
# modifications: not checked
# B21: … (peptide)
# peptide: GPFSFSVIDKPPG
# modifications: not checked
# B22: … (peptide)
# peptide: DVNEYAPVFKEKSYK
# modifications: not checked
# B23: … (peptide)
# peptide: ENPYFAPNPKIIRQ
# modifications: not checked
# B24: … (peptide)
# peptide: LAPTWEELSKKEFPG
# modifications: not checked
# B25: … (peptide)
# peptide: GQQWTYEQRKIVE
# modifications: not checked
# B26: … (peptide)
# peptide: TRNEVIPMSHPGAVD
# modifications: not checked
# Target: T3, Thrombin digested soluble HLA-DRB1*15:01 (CLIP0 placeholder construct) (human)
# Experiment: FP probe displacement; probe m27
Molecule,% inhibition of probe binding at 0.1uM [%],% inhibition of probe binding at 1uM [%],% inhibition of probe binding at 10uM [%]
B1,42,50,58
B2,46,58,74
B3,1,6,61
B4,21,50,66
B5,49,79,82

# Target: T1, HLA-DRB1*01:01 (biochemical MHC-peptide …)
# Experiment: biochemical MHC-peptide affinity assay
row,Molecule,Measured affinity [nM]
1,B6,30
2,B7,333
3,B8,189
4,B9,8
5,B10,27
6,B11,3
7,B12,54
8,B13,8

# Target: T2, HLA-DRB1*11:01 (biochemical MHC-peptide …)
# Experiment: biochemical MHC-peptide affinity assay
row,Molecule,Measured affinity [nM]
1,B14,67
2,B15,35
3,B16,63
4,B17,254
5,B18,159
6,B19,79
7,B20,195
8,B21,209
9,B22,223
10,B23,128
11,B24,174
12,B25,145
13,B26,36

# Target: T3, Thrombin digested soluble …
# Experiment: differential scanning fluorometry after peptide exchange (Sypro orange)
Molecule,DTm (sample Tm - control Tm),Average Tm
B1,20.1,–
B2,19.9,–
B3,5.6,–
B4,15.6,73.9
B5,21.4,–

# Target: HLA monomer of the STII-TR-FRET peptide exchange assay (secreted HLA class II alpha/beta heterodimer; allele not stated)
# Experiment: TR-FRET peptide exchange titration on 20nM DRB1*01:01 (STII-CLIP), 37C; displaced: m2
row,Molecule,IC50 (read off the curve) [nM]
1,CLIP (peptide),70
